Measurements taken from US20230331809A1.

Molecular target: CD40 (Cluster of Differentiation 40) on cells (UniProt P25942)
Sequence (P25942 21-277 limits assumed): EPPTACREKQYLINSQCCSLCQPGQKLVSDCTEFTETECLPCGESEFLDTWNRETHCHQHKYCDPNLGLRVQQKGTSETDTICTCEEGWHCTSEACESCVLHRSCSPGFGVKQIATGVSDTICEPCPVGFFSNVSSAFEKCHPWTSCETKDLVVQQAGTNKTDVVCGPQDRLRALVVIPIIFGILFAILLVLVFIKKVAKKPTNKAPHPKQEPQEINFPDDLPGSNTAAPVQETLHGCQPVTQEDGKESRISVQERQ

Chain of CD40L (Invivogen), native CD40 binding partner (P29965 113-261 limits assumed): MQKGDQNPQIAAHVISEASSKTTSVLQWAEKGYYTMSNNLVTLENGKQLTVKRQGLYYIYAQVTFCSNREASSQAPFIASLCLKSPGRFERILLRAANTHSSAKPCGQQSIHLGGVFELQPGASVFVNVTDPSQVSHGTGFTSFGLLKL

- EC50, CD40 RGA, FcgRIIB CHOK1: 0.81 µg/mL
- EC50, CD40 RGA, HEK Blue only: 0.43 µg/mL
- EC50, CD40 RGA, WT CHOK1: 0.44 µg/mL
- Fold wrt WT (EC50, relative to v32477 - uPa), CD40 RGA, FcgRIIB CHOK1: 16.6 fold
- Fold wrt WT (EC50, relative to v32477 - uPa), CD40 RGA, HEK Blue only: 2.76 fold
- Fold wrt WT (EC50, relative to v32477 - uPa), CD40 RGA, WT CHOK1: 3.19 fold
Substance: CD40L (Invivogen), native CD40 binding partner (from UniProt P29965 113-261) (ligand)
